The target in one data set is PARP1 full-length (human, UniProt P09874 2-1014, V762A). Description: NMR; 35.5 uM protein, 40 uM DNA; 15N-1H TROSY, 25 C; EMSA: 20 mM HEPES-KOH pH 7.6, 5 mM MgCl2, 1 mM DTT, 20% glycerol, 1 h room temperature, 6% native PAGE; NMR: 10 mM sodium phosphate, 222 mM NaCl, 2.7 mM KCl, 2. As to conditions: protein: recombinant; tags: N-terminal His6 (MKHHHHHHKMQ); dumbbell: two hairpins, mimics single-strand break. In general terms: In EMSA bound probe runs differently from free probe, usually more slowly.

The target in the next data set is T1, PARP14 WWE-ART (human, UniProt Q460N5 1459-1801).
T1 sequence: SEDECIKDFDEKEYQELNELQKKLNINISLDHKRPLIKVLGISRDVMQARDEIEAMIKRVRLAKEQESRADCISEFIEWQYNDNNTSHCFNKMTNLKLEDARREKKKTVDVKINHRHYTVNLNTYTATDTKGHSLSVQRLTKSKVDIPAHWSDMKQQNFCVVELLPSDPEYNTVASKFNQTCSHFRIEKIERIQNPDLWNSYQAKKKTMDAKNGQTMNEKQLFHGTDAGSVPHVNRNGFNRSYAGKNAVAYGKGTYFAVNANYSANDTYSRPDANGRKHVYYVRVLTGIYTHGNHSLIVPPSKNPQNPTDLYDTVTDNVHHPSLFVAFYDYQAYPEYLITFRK
Nature of the data set: EMSA; 0.5 uM RNA, 1-5 uM protein, 5 mM Mg2+; EMSA: 20 mM HEPES-KOH pH 7.6, 5 mM MgCl2, 1 mM DTT, 20% glycerol, 1 h room temperature, 6% native PAGE; NMR: 10 mM sodium phosphate, 222 mM NaCl, 2.7 mM KCl, 2. As to conditions: protein: recombinant; label: 5' Cy3; single strand.

The target in the next data set is T2, PARP14 KH8-WWE-ART (human, UniProt Q460N5 1453-1801).
T2 sequence: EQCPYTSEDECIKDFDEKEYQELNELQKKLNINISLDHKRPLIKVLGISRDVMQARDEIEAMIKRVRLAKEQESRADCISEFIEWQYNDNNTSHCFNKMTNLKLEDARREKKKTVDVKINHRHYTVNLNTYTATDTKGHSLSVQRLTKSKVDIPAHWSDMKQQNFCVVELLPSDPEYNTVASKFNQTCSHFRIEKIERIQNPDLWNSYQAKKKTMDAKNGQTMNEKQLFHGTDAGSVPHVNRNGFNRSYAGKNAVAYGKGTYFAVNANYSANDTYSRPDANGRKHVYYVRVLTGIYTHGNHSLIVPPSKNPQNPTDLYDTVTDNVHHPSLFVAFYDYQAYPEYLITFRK
Description: EMSA; 0.5 uM RNA, 1-5 uM protein, 5 mM Mg2+; possible slight nuclease contamination; EMSA: 20 mM HEPES-KOH pH 7.6, 5 mM MgCl2, 1 mM DTT, 20% glycerol, 1 h room temperature, 6% native PAGE; NMR: 10 mM sodium phosphate, 222 mM NaCl, 2.7 mM KCl, 2. To be noted: protein: recombinant; label: 5' Cy3; single strand.

A further data set has as its target T3, PARP14 KH1-KH2 (human, UniProt Q460N5 316-468).
T3 sequence: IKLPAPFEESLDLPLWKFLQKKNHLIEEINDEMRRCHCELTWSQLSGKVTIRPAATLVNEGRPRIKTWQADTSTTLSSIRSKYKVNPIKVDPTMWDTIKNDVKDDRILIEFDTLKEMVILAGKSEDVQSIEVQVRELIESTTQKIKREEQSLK
Nature of the data set: EMSA; 0.5 uM RNA, 1-5 uM protein, 5 mM Mg2+; efficient binding at micromolar concentrations; EMSA: 20 mM HEPES-KOH pH 7.6, 5 mM MgCl2, 1 mM DTT, 20% glycerol, 1 h room temperature, 6% native PAGE; NMR: 10 mM sodium phosphate, 222 mM NaCl, 2.7 mM KCl, 2. To be noted: protein: recombinant; label: 5' Cy3; single strand.

Sequence of PARP1 full-length (P09874 2-1014 V762A): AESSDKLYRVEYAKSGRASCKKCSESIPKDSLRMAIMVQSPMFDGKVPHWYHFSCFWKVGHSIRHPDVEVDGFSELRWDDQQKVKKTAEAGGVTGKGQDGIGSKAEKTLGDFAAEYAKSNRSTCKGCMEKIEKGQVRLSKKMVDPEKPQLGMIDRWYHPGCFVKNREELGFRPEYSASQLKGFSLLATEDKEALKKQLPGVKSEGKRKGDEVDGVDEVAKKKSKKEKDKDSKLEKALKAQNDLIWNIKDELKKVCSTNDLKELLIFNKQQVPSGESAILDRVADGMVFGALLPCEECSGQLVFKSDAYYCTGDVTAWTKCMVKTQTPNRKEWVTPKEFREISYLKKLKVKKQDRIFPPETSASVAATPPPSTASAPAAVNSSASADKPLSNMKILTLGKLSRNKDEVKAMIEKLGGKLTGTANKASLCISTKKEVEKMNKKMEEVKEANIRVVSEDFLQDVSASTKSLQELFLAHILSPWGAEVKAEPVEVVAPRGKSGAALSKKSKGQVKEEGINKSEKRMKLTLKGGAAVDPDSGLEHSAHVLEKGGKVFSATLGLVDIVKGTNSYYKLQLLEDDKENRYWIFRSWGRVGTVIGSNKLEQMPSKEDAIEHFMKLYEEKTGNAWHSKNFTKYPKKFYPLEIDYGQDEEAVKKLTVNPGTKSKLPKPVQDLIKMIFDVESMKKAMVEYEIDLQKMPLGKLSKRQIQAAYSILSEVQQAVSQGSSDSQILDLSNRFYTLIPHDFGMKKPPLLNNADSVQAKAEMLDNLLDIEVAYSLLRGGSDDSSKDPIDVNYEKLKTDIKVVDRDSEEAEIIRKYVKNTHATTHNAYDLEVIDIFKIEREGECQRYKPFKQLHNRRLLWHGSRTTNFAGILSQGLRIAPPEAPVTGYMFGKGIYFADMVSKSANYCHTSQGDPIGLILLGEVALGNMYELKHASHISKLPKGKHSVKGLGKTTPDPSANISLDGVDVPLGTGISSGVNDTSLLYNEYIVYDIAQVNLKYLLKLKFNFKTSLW

Consider GCTGGCTTCGTAAGAAGCCAGCTCGCGGTCAGCTTGCTGACCGCG (structured_DNA, 5' phosphate) [45-nt DNA dumbbell], for which the binding result in the data set with PARP1 full-length is recorded as “binds”.

For GUGGCGCGGAGACUUAGAGAA (ssRNA) [E21 RNA], the binding result is “no binding” with PARP14 WWE-ART, “binds” in the data set with PARP14 KH8-WWE-ART and “binds” with PARP14 KH1-KH2.

These data come from article PMC10450202, “Updated protein domain annotation of the PARP protein family sheds new light on biological function”.
